B1: 5.20 (antibody, V domains shown)
VH: GPGLLKPSETLSLTCAVSGDSISGGYYWSWIRQSPGKGLEWIGHIYGSTADTRYNPSLKSRVTISKDTRKNQLSLQLRSVTAADTAVYYCARSGYNFWSGEYYGLDSWGQGAVVTVSS
VL: TQSPSSLSAYVGDKVTITCHASQGINSWLAWYQQKPGKAPKLLIYKASSLQSGVPSRFSGSGSGTDYTLTISSLQSEDFASYYCLQYDSAPLAFGPGTKLDIK
B2: 5.15 (antibody, V domains shown)
VH: B1 VH with R69S, S117A
VL: B1 VL
B3: 35PA83 Fab (parent) (antibody, V domains shown)
VH: B1 VH with R69S
VL: B1 VL
B4: J24-15 (antibody, V domains shown)
VH: QVQLQESGPGLLKPSETLSLTCAVSGDSISGGYYWSWIRQSPGKGLEWIGHIYGSTADTRYNPSLKSRVTISKDTSKNQLSLQLRSVTAADTAVYYCARSGYNFWSGEYYGLDLWGQGAVVTVSS
VL: AIQLTQSPSSLSAYVGDKVTITCHASQGINSWLAWYQQKPGKAPKLLIYKARSLQSGVPSRFSGSGSGTDYTLTISSLQSEDFASYYCLQYDSAPLAFGPGTKLDIK
B5: J24-7 (antibody, V domains shown)
VH: B4 VH with L114S
VL: B4 VL with H24R, R52S, S56E
B6: v2 (antibody, V domains shown)
VH: B4 VH with G31S, R60K, K66R, L114S
VL: B4 VL with R52S

Numbering of substitutions follows the chain as printed.

In one test the target is PA83 protective antigen (Bacillus anthracis, UniProt P13423). As to the kind of experiment: SPR. In general terms: Surface plasmon resonance follows binding to a sensor surface in real time, without labels.
Target sequence in this assay (P13423 30-764): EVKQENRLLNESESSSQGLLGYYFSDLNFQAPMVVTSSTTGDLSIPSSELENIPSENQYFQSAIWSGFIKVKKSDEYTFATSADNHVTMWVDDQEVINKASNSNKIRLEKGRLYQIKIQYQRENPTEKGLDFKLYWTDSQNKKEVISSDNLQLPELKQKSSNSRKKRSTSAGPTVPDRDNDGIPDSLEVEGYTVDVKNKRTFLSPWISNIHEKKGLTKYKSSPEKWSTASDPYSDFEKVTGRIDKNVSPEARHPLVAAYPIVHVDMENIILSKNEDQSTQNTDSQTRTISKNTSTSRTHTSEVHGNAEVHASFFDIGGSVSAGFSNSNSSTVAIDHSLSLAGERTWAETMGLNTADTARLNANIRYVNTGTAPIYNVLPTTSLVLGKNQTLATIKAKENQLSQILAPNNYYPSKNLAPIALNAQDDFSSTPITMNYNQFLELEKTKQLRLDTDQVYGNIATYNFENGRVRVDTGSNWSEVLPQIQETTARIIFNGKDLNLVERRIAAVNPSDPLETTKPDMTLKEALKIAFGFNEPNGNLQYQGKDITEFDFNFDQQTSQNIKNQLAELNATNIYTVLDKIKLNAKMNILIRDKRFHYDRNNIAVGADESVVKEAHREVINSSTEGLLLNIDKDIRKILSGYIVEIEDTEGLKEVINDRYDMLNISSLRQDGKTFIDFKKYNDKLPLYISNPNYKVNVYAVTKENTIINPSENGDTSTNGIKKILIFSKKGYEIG
On to B1, for which binding was put at a Kd of 12.2 nM. The same measure, in the same setting: as for B2, the figure is 3.5 nM.

The next test shares this target. Briefly: SPR. The source holds these as a separate data set.
Target sequence in this assay (P13423 30-764): as above
With B3, the Kd (in general, the free concentration of one partner at which half of the binding sites on the other are occupied at equilibrium, for simple one-to-one binding) is 3.4 nM.

On to B4, for which the equilibrium dissociation constant (Kd) was 0.88 nM. The same measure, in the same setting: as for B5, the figure is 0.78 nM; as for B6, 0.66 nM.

Values taken from patent US8507655.
